From article PMC3830201, “Swiprosin-1 modulates actin dynamics by regulating the F-actin accessibility to cofilin” (Cellular and Molecular Life Sciences: CMLS, 2013)

B1: GST-Swiprosin-1 fusion protein (wild type) (natural protein)
chain: MATDELATKLSRRLQMEGEGGGETPEQPGLNGAAAAAAGAPDEAAEALGSADCELSAKLLRRADLNQGIGEPQSPSRRVFNPYTEFKEFSRKQIKDMEKMFKQYDAGRDGFIDLMELKLMMEKLGAPQTHLGLKNMIKEVDEDFDSKLSFREFLLIFRKAAAGELQEDSGLCVLARLSEIDVSSEGVKGAKSFFEAKVQAINVSSRFEEEIKAEQEERKKQAEEMKQRKAAFKELQSTFK
notes: Swiprosin-1 (EF hand domain containing 2, EFHD2), human (hSwiprosin-1); Cloned into pGEX4T1; also called GST-Swiprosin-1-WT; GST-Sw-WT; source: purified GST fusion protein (pGEX4T1); also used on agarose beads
B2: GST-Swiprosin-1 S183E (phosphorylation-mimicking mutant) (natural protein)
chain: MATDELATKLSRRLQMEGEGGGETPEQPGLNGAAAAAAGAPDEAAEALGSADCELSAKLLRRADLNQGIGEPQSPSRRVFNPYTEFKEFSRKQIKDMEKMFKQYDAGRDGFIDLMELKLMMEKLGAPQTHLGLKNMIKEVDEDFDSKLSFREFLLIFRKAAAGELQEDSGLCVLARLSEIDVESEGVKGAKSFFEAKVQAINVSSRFEEEIKAEQEERKKQAEEMKQRKAAFKELQSTFK
notes: Swiprosin-1 (EFHD2), human (hSwiprosin-1); also called GST-Sw-S183E; source: purified GST fusion protein (pGEX4T1)
B3: GST-Swiprosin-1 S183A (phosphorylation-deficient mutant) (natural protein)
chain: MATDELATKLSRRLQMEGEGGGETPEQPGLNGAAAAAAGAPDEAAEALGSADCELSAKLLRRADLNQGIGEPQSPSRRVFNPYTEFKEFSRKQIKDMEKMFKQYDAGRDGFIDLMELKLMMEKLGAPQTHLGLKNMIKEVDEDFDSKLSFREFLLIFRKAAAGELQEDSGLCVLARLSEIDVASEGVKGAKSFFEAKVQAINVSSRFEEEIKAEQEERKKQAEEMKQRKAAFKELQSTFK
notes: Swiprosin-1 (EFHD2), human (hSwiprosin-1); also called GST-Sw-S183A; source: purified GST fusion protein (pGEX4T1)

These binders were tested against F-actin assembled from rabbit skeletal muscle G-actin (rabbit, UniProt P68135 1-377) (assay: co-sedimentation; purified GST or GST-Swiprosin-1 proteins incubated with 5 uM G-actin in actin polymerization buffer (MgCl2, KCl, ATP) at 25 C to assemble filaments; ultracentrifuged at 45,000 rpm; supernatant and pellet by SDS-PAGE, Coomassie). Conditions: both partners purified.

Binding result, binds:
B1
B2
B3
